Reference: the supplement of paper PMC10065799, “High-throughput profiling of sequence recognition by tyrosine kinases and SH2 domains using bacterial peptide display” (eLife, 2023)

Experiments:
c-Src SH2 = experiment: SH2 binding enrichment of the phosphorylated peptide, bacterial display (enrichment ratio); higher = better substrate or ligand; peptides without Tyr show the background
SHP2-C SH2 = experiment: as above
Grb2 SH2 = Grb2 SH2 (UniProt P62993); experiment: as above
c-Src = experiment: phosphorylation enrichment, bacterial display (enrichment ratio); higher = better substrate or ligand; peptides without Tyr show the background
Jak2 = Jak2 (UniProt O60674); experiment: as above
FGFR3 = FGFR3 (UniProt P22607); experiment: as above
Fer (mouse) = experiment: as above
Hck = Hck (UniProt P08631); experiment: as above
AncSZ = experiment: as above
EPHB1 = EPHB1 (UniProt P54762); experiment: as above
Fes = Fes (UniProt P07332); experiment: as above
FGFR1 = FGFR1 (UniProt P11362); experiment: as above
c-Abl (mouse) = experiment: as above
MERTK = MERTK (UniProt Q12866); experiment: as above
EPHB2 = EPHB2 (UniProt P29323); experiment: as above
Fyn = Fyn (UniProt P06241); experiment: as above
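For SH2 binding enrichment of the phosphorylated peptide, bacterial display in this document: peptide library displayed on the E. coli surface as eCPX fusions, selected cells deep-sequenced, score is each peptide's frequency after selection divided by its frequency in the input.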
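For phosphorylation enrichment, bacterial display in this document: 11-residue human phosphosite peptides and single-mutation variants displayed on the E. coli surface, counted by deep sequencing, each peptide's frequency after selection divided by its frequency in the unselected input library; frequency after pTyr selection over input frequency; kinase dosed for 20-30% of maximal phosphorylation in three min.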

Chain of Fes (P07332 whole entry, looked up): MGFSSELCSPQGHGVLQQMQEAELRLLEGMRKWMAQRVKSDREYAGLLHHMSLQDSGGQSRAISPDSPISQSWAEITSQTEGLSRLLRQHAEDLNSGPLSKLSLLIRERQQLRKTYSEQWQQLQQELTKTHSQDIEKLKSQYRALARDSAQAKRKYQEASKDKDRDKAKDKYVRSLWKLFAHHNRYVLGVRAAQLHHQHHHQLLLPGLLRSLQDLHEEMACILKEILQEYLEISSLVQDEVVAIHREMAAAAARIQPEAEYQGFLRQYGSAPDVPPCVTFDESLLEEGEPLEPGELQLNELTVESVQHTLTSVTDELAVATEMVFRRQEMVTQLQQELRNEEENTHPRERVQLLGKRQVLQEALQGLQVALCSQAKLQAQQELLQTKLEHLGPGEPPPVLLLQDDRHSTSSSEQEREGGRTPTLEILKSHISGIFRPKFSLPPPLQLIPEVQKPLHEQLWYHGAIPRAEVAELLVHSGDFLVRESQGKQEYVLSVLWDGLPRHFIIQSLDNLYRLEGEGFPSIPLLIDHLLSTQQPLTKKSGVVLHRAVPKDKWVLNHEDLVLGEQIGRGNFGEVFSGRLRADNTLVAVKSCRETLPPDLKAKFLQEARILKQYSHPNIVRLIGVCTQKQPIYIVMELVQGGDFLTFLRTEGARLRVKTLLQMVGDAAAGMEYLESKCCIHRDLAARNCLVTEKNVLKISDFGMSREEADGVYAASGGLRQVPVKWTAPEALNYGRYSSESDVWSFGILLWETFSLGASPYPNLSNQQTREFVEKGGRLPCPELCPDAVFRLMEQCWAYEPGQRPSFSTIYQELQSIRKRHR
Chain of Jak2 (O60674 whole entry, looked up): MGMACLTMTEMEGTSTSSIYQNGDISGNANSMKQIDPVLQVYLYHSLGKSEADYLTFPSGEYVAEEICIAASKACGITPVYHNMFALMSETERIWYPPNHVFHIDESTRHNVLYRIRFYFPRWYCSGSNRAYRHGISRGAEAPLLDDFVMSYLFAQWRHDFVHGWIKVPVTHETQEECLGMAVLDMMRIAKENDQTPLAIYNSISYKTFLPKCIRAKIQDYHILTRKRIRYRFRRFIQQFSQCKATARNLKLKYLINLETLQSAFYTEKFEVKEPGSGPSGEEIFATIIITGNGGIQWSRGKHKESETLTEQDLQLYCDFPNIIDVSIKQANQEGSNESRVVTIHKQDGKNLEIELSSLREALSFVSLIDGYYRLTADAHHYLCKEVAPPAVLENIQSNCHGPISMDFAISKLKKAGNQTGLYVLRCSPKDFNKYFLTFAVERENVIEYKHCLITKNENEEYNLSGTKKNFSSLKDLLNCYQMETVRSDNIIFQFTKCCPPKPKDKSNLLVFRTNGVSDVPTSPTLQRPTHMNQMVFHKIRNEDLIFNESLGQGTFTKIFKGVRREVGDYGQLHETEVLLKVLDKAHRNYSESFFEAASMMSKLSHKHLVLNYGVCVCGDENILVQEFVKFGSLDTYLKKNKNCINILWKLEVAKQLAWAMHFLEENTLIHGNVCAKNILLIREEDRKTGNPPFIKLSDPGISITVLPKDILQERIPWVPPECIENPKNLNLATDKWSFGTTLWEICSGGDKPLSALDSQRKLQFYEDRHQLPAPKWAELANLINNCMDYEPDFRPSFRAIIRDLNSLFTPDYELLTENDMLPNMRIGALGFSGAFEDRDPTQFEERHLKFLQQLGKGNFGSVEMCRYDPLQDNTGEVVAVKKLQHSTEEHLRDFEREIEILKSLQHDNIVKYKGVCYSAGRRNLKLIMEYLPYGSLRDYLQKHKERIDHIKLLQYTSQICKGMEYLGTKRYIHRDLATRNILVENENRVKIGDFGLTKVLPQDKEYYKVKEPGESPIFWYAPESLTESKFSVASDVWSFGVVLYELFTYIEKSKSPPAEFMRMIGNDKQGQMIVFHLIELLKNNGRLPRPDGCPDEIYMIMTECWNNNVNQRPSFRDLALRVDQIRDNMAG
Chain of Hck (P08631 whole entry, looked up): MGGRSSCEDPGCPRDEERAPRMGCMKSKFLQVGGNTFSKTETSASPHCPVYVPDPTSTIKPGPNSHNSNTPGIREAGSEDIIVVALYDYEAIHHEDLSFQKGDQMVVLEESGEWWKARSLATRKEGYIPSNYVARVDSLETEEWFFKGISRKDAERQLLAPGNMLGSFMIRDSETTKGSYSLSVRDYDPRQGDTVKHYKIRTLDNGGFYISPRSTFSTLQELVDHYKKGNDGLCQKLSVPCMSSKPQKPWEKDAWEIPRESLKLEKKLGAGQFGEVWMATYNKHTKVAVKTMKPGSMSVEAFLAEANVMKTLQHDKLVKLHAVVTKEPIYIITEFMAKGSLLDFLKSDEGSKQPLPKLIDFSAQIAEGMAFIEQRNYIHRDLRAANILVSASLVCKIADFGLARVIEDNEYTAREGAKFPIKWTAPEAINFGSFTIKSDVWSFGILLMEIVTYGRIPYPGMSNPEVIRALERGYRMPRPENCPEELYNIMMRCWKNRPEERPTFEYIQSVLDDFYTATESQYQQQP
Chain of MERTK (Q12866 whole entry, looked up): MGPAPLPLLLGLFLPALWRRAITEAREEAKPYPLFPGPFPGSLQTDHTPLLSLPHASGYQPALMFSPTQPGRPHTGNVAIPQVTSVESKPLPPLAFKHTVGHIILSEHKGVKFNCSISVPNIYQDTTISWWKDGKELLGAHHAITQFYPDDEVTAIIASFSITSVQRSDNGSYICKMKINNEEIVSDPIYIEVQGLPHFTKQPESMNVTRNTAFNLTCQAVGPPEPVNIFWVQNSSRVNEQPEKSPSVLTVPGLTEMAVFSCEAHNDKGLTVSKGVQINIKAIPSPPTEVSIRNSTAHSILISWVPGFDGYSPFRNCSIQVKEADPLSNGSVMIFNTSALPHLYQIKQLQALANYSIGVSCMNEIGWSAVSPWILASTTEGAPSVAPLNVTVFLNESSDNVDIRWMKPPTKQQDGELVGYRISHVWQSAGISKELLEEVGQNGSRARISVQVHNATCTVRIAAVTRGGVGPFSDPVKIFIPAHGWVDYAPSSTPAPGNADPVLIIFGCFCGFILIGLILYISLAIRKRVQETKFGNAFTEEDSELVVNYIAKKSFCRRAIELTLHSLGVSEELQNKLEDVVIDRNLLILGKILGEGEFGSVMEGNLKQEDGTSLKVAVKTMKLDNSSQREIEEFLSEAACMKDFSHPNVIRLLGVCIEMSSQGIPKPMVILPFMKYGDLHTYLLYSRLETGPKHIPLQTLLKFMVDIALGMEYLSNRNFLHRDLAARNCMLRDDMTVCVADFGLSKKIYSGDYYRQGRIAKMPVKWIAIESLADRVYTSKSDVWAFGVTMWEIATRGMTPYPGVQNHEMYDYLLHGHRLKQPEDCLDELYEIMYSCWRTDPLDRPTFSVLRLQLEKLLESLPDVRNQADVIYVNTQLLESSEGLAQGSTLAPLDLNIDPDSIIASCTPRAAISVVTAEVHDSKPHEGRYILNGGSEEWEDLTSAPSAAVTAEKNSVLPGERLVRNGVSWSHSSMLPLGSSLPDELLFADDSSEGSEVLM
Chain of EPHB2 (P29323 whole entry, looked up): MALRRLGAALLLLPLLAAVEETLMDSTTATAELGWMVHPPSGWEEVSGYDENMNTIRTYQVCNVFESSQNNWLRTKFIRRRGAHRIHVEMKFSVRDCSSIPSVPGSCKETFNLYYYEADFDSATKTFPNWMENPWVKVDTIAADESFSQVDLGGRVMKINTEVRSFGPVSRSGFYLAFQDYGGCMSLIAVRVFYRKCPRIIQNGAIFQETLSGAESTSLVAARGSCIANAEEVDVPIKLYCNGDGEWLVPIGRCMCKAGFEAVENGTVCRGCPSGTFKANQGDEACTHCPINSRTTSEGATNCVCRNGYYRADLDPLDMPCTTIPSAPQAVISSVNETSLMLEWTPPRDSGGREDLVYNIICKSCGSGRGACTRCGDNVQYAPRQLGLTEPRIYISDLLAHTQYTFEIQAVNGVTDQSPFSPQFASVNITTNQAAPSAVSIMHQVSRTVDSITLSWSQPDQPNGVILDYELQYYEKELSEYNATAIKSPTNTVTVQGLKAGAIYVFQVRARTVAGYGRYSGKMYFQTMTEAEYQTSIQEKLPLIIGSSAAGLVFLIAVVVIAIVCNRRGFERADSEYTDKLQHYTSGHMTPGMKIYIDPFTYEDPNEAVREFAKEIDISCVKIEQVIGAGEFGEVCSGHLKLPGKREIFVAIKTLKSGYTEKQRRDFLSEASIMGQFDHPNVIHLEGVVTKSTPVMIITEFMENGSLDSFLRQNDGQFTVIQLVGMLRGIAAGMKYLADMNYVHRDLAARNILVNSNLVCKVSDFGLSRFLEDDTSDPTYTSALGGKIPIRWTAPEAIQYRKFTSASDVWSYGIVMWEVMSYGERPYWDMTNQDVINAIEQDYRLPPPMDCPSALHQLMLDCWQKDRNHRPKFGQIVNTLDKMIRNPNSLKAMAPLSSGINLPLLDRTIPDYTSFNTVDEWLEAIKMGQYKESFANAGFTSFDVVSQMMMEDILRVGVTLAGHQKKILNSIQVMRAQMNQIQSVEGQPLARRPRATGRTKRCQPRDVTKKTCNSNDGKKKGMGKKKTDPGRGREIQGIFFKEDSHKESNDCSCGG
Chain of Fyn (P06241 whole entry, looked up, the tested form may be a part): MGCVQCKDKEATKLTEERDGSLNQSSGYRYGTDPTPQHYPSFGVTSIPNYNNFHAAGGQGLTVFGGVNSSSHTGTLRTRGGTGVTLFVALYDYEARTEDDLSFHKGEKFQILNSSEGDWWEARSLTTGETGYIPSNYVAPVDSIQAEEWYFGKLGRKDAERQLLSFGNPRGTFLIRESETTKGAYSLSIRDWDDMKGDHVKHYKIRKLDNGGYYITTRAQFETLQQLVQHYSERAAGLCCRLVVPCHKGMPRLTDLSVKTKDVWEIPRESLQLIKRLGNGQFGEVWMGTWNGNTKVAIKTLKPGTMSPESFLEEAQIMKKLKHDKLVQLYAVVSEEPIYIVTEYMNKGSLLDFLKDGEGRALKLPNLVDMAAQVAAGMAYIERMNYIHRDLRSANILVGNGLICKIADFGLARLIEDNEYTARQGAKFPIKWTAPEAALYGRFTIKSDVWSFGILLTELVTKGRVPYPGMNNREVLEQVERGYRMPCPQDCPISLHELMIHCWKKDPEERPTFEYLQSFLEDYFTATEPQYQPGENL

SH2 binding enrichment (c-Src SH2) | SH2 binding enrichment (SHP2-C SH2) | SH2 binding enrichment (Grb2 SH2) | Sequence | phosphorylation enrichment (c-Src) | phosphorylation enrichment (Jak2) | phosphorylation enrichment (FGFR3) | phosphorylation enrichment (Fer (mouse)) | phosphorylation enrichment (Hck) | phosphorylation enrichment (AncSZ) | phosphorylation enrichment (EPHB1) | phosphorylation enrichment (Fes) | phosphorylation enrichment (FGFR1) | phosphorylation enrichment (c-Abl (mouse)) | phosphorylation enrichment (MERTK) | phosphorylation enrichment (EPHB2) | phosphorylation enrichment (Fyn)
0.458 | 0.472 | 0.722 | FRQLPYCPSVE [CTNND2_Y508_Q507P_YF] | 0.499 | 1.08 | 1.2 | 0.603 | 0.776 | 1.25 | 0.647 | 1.39 | 0.526 | 0.837 | 0.486 | 0.748 | 0.538
0.658 | 0.801 | 0.832 | QDKDLYPCPGT [RLF_Y671_R668K] | 0.483 | 0.996 | 0.785 | 0.562 | 0.625 | 1.36 | 0.701 | 1.18 | 0.744 | 0.726 | 0.613 | 0.857 | 0.652
0.467 | 0.515 | 0.607 | ICFSDYVEVAD [PHACTR1_Y525_R521C] | 0.549 | 1.28 | 2.26 | 0.609 | 0.698 | 2.01 | 1.81 | 1.55 | 2.34 | 0.985 | 0.459 | 1.42 | 0.555
0.656 | 0.784 | 0.827 | EFNLMYHGTKE [IRF6_Y97_D98H] | 0.545 | 0.744 | 0.579 | 0.451 | 0.455 | 0.923 | 0.631 | 0.94 | 0.489 | 0.593 | 0.442 | 0.645 | 0.463
0.494 | 1 | 0.887 | EPSVDCCVVKI [CAD_Y735_Y735C] | 0.369 | 1.01 | 0.586 | 0.411 | 0.371 | 1.07 | 0.449 | 1.18 | 0.432 | 0.816 | 0.376 | 0.499 | 0.336
1.61 | 2.1 | 1.5 | RNVYYYSYLLK [PTEN_Y178_Y174N] | 7.3 | 8.72 | 8.38 | 1.59 | 5.15 | 3.58 | 8.15 | 2.56 | 9.89 | 9.24 | 11.5 | 5.19 | 3.94
0.738 | 0.646 | 0.989 | DPKFHYDNTAG [KDR_Y1214] | 0.547 | 0.698 | 0.489 | 0.401 | 0.496 | 0.667 | 0.373 | 0.79 | 0.467 | 0.497 | 0.505 | 0.422 | 0.524
0.56 | 0.842 | 0.895 | ESFCLYPPVPQ [CYP4B1_Y377_R375C] | 0.477 | 0.906 | 0.647 | 0.582 | 0.484 | 0.874 | 0.805 | 1.12 | 0.539 | 0.739 | 0.447 | 0.595 | 0.459
0.441 | 0.52 | 0.681 | APGNAYGDAGY [SYP_Y250_D248N] | 0.497 | 0.851 | 0.512 | 0.452 | 0.474 | 0.731 | 0.515 | 0.77 | 0.428 | 0.607 | 0.423 | 0.451 | 0.418
0.625 | 0.755 | 0.874 | KHASTYREAAT [DEAF1_Y483] | 0.307 | 0.356 | 0.39 | 0.363 | 0.344 | 0.425 | 0.328 | 0.518 | 0.339 | 0.52 | 0.359 | 0.324 | 0.322
0.869 | 1.03 | 0.997 | YQGGTYSKACT [FGG_Y380_S384C] | 0.436 | 0.59 | 0.529 | 0.38 | 0.541 | 0.52 | 0.428 | 0.74 | 0.349 | 0.719 | 0.459 | 0.4 | 0.383
0.364 | 0.651 | 0.534 | MPLTEYLKQIK [CNGB3_Y200_R203Q] | 0.582 | 0.749 | 0.526 | 0.451 | 0.514 | 0.83 | 0.572 | 0.995 | 0.533 | 0.844 | 0.459 | 0.511 | 0.448
0.485 | 0.882 | 0.814 | FQEKGYNKELR [CHRND_Y38] | 0.378 | 0.57 | 0.519 | 0.376 | 0.351 | 0.675 | 0.45 | 0.74 | 0.471 | 0.45 | 0.382 | 0.268 | 0.335
0.419 | 0.719 | 0.642 | IVEFAYNDKAI [PUM3_Y259_YF] | 0.474 | 0.668 | 0.525 | 0.406 | 0.52 | 0.783 | 0.395 | 0.74 | 0.432 | 0.538 | 0.494 | 0.59 | 0.475
0.522 | 0.788 | 0.842 | CEETFYTMKVN [MASP2_Y401] | 1.41 | 1.51 | 0.935 | 0.738 | 0.756 | 1.48 | 0.766 | 1.4 | 0.546 | 0.9 | 0.529 | 0.625 | 1.04
0.466 | 0.645 | 0.794 | AIYWRYSKFFD [SH3PXD2B_Y45_R43W] | 0.97 | 1.07 | 0.804 | 0.526 | 0.886 | 1.3 | 0.982 | 1.05 | 0.57 | 1.1 | 0.421 | 0.681 | 1.49
0.354 | 0.602 | 0.654 | IEELTYVIKQD [STX5_Y137_I138V] | 0.691 | 1.18 | 0.954 | 0.54 | 0.528 | 1.23 | 0.643 | 1.26 | 0.515 | 0.705 | 0.363 | 0.659 | 0.494
1.32 | 0.673 | 0.779 | TVLEPYADPFF [ZC3H18_Y367_YF] | 0.517 | 0.906 | 0.611 | 0.536 | 0.65 | 1.16 | 0.432 | 0.879 | 0.753 | 0.565 | 0.408 | 0.5 | 0.526

Second part, the sequence before the results:

Sequence | SH2 binding enrichment (c-Src SH2) | SH2 binding enrichment (SHP2-C SH2) | SH2 binding enrichment (Grb2 SH2) | phosphorylation enrichment (c-Src) | phosphorylation enrichment (Jak2) | phosphorylation enrichment (FGFR3) | phosphorylation enrichment (Fer (mouse)) | phosphorylation enrichment (Hck) | phosphorylation enrichment (AncSZ) | phosphorylation enrichment (EPHB1) | phosphorylation enrichment (Fes) | phosphorylation enrichment (FGFR1) | phosphorylation enrichment (c-Abl (mouse)) | phosphorylation enrichment (MERTK) | phosphorylation enrichment (EPHB2) | phosphorylation enrichment (Fyn)
AFGEVYEGQVS [ALK_Y1131] | 0.499 | 0.456 | 0.914 | 1.54 | 0.846 | 0.667 | 0.459 | 0.937 | 0.974 | 0.539 | 1.11 | 0.695 | 0.764 | 0.442 | 0.64 | 0.772
GMKIVYVYVKK [DNAI2_Y5_E2K] | 0.646 | 0.741 | 1.23 | 0.473 | 0.899 | 0.587 | 0.605 | 0.459 | 1.11 | 0.567 | 1.12 | 0.479 | 0.801 | 0.418 | 0.594 | 0.466
ELAINYQEQAS [SLC9A9_Y591] | 0.536 | 0.556 | 0.905 | 0.403 | 0.832 | 0.674 | 0.524 | 0.643 | 0.923 | 0.526 | 0.869 | 0.522 | 0.504 | 0.416 | 0.469 | 0.539
TNQVIYLNPPI [DYNC1H1_Y970] | 0.459 | 0.99 | 0.819 | 0.743 | 0.706 | 2.94 | 0.473 | 1.45 | 0.849 | 7.69 | 0.77 | 3.51 | 13.9 | 3.71 | 4.73 | 0.62
SPYAVYLFFTF [RPGRIP1_Y826_R827L] | 0.542 | 0.71 | 1.07 | 0.748 | 0.783 | 0.87 | 0.628 | 0.569 | 0.928 | 0.47 | 1.08 | 0.446 | 0.797 | 0.533 | 0.487 | 0.617
FLAATYPTLGQ [NF1_Y2508_V2511L_YF] | 0.572 | 0.814 | 0.866 | 0.404 | 0.523 | 0.572 | 0.4 | 0.389 | 0.572 | 0.723 | 0.674 | 0.424 | 0.549 | 0.356 | 0.4 | 0.422
VLTSTYRGGGG [HBA1_Y141_K140T] | 0.452 | 0.645 | 0.84 | 0.394 | 0.509 | 0.483 | 0.385 | 0.377 | 0.575 | 0.315 | 0.628 | 0.361 | 0.425 | 0.367 | 0.376 | 0.38
FDFKKYGKGLR [ZNF445_Y433_YF] | 1.14 | 0.751 | 1.19 | 0.484 | 0.525 | 0.498 | 0.304 | 0.45 | 0.531 | 0.426 | 0.671 | 0.575 | 0.392 | 0.389 | 0.436 | 0.318
SDTGQYQCLVF [AXL_Y115] | 0.449 | 0.563 | 0.582 | 1.64 | 0.969 | 1.65 | 2.7 | 3.09 | 1.33 | 0.867 | 1.26 | 1.65 | 1.86 | 1.77 | 0.9 | 2.03
TKDTFYQQPMF [GBA_Y451_K452Q] | 0.902 | 0.637 | 0.793 | 0.639 | 0.648 | 0.589 | 2.41 | 0.91 | 1.07 | 0.583 | 0.805 | 0.605 | 3.38 | 4.31 | 2.01 | 0.664
RLLRGYRQDAF [HLA-A_Y137_F133L_YF] | 0.465 | 0.965 | 0.762 | 0.819 | 0.854 | 0.676 | 0.659 | 0.604 | 1.22 | 0.809 | 0.981 | 0.547 | 0.807 | 0.647 | 0.334 | 0.678
EAIMTYVSSFF [ACTN4_Y260_K255E_YF] | 0.493 | 0.642 | 0.659 | 0.975 | 0.9 | 0.675 | 0.468 | 0.643 | 1.02 | 0.621 | 1.04 | 0.501 | 0.842 | 0.422 | 0.726 | 0.778
EKQARYEIVEE [CDH5_Y223_V227E] | 18.8 | 0.921 | 0.897 | 0.521 | 1.09 | 0.798 | 0.56 | 0.667 | 1.2 | 0.582 | 1.24 | 0.506 | 0.749 | 0.644 | 0.565 | 0.542
SVVVRYEPPEV [TP53_Y220_P219R] | 0.882 | 0.775 | 0.967 | 0.386 | 0.705 | 0.517 | 0.466 | 0.42 | 0.892 | 0.445 | 0.902 | 0.409 | 0.747 | 0.425 | 0.503 | 0.371
KDFTKYVAYIE [KDM4B_Y31_N29T] | 0.608 | 2.42 | 0.966 | 0.523 | 0.921 | 0.734 | 0.434 | 0.558 | 0.864 | 0.651 | 1.07 | 0.604 | 0.679 | 0.465 | 0.584 | 0.541
